The values below come from US8008547B2, “Glyphosate-N-acetyltransferase (GAT) genes” (E.I. duPont de Nemours, priority 2000, dated 2011).

The data set in a line: Standard protocol for determination of kcat and KM (continuous spectrophotometric assay, Acetyl CoA hydrolysis at 235 nm). It is filed as biochemical. As to conditions: purified protein, about 23° C., 0.2 mM acetyl CoA; for Kcat: 20 mM HEPES pH 6.8, 10% ethylene glycol; for Km: pH 6.8, glyphosate 0.125 to 10 mM. The essentials:
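KM from initial rates over 0.125–10 mM glyphosate, fitted by Lineweaver-Burke transformation of Michaelis-Menten; kcat/KM computed as kcat divided by KM. Continuous spectrophotometric read of acetyl-CoA hydrolysis at 235 nm.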

B1: SEQ ID NO: 496: GAT polypeptide (protein)
chain: MLEVKPINAEDTYELRHKILRPNQPIEVCMYETDLLRGAFHLGGFYGGKLISIASFHQAEHSDLQGQKQYQLRGMATLEGYRDQKAGSSLIRHAEQILRKRGADMLWCNARTSASGYYKKLGFSEQGEIFETPPVGPHILMYKRLT
modifications: 5_2F10
notes: GAT polypeptide
For B1, the Kcat was 0.912 s⁻¹.

B2: SEQ ID NO: 505: GAT polypeptide (protein)
chain: MLEVKPINAEDTYELRHKILRPNQPIEVCMYETDLLRGAFHLGGYYRGKLISIASFHQAEHSELQGQKQYQLRGMATLEGYREQKAGSSLIRHAEEILRKRGADLLWCNARTSASGYYKKLGFSEQGEIFDTPPVGPHILMYKRIT
modifications: 8_1G3
notes: GAT polypeptide
As for B2, the Kcat is 1.815 s⁻¹.

B3: SEQ ID NO: 502: GAT polypeptide (protein)
chain: MLEVKPINAEDTYELRHKILRPNQPLEVCMYETDLLRGAFHLGGFYGGKLISIASFHQAEHSDLQGQKQYQLRGMATLEGYRDQKAGSTLIKHAEQILRKRGADMLWCNARTSASGYYKKLGFSEQGEVFETPPVGPHILMYKRLT
modifications: 6_1H4
notes: GAT polypeptide
Take B3: the Kcat was found to be 1.432 s⁻¹.

B4: SEQ ID NO: 498: GAT polypeptide (protein)
chain: MIEVKPINAEDTYELRHKILRPNQPLEVCMYETDLLRGAFHLGGFYRGKLISIASFHQAEHSDLQGQKQYQLRGMATLEGYRDQKAGSSLIRHAEQILRKRGADMLWCNARTSASGYYKKLGFSEQGEVFETPPVGPHILMYKRIT
modifications: 6_1D5
notes: GAT polypeptide
In turn, B4 showed a Kcat of 0.7153 s⁻¹.

B5: SEQ ID NO: 503: GAT polypeptide (protein)
chain: MIEVKPINAEDTYELRHRILRPNQPLEVCMYETDLLRGAFHLGGFYRGKLISIASFHQAEHSDLQGQKQYQLRGMATLEGYREQKAGSSLIKHAEEILRKRGADLLWCNARTSASGYYKKLGFSEQGEIFDTPPVGPHILMYKRIT
modifications: 8_1F8
notes: GAT polypeptide
In turn, B5 returned a Kcat of 1.381 s⁻¹.

B6: SEQ ID NO: 506: GAT polypeptide (protein)
chain: MLEVKPINAEDTYELRHRILRPNQPIEVCMYETDLLRGAFHLGGFYRGKLISIASFHQAEHSELQGQKQYQLRGMATLEGYREQKAGSSLIKHAEEILRKRGADMLWCNARTSASGYYKKLGFSEQGEIFETPPVGPHILMYKRLT
modifications: 8_1H7
notes: GAT polypeptide
With B6, the Kcat worked out at 1.6873 s⁻¹.

B7: SEQ ID NO: 507: GAT polypeptide (protein)
chain: MLEVKPINAEDTYELRHKILRPNQPLEVCMYETDLLRGAFHLGGYYRGKLISIASFHQAEHSDLQGQKQYQLRGMATLEGYREQKAGSSLIRHAEEILRKRGADLLWCNARTSASGYYKKLGFSEQGEVFDTPPVGPHILMYKRLT
modifications: 8_1H9
notes: GAT polypeptide
For B7, the Kcat was 1.306 s⁻¹.

B8: SEQ ID NO: 500: GAT polypeptide (protein)
chain: MLEVKPINAEDTYELRHKILRPNQPLEVCMYETDLLRGAFHLGGFYRGKLISIASFHQAEHSELQGQKQYQLRGMATLEGYRDQKAGSSLIRHAEQILRKRGADMLWCNARTSASGYYKKLGFSEQGEVFETPPVGPHILMYKRLT
modifications: 6_1F1
notes: GAT polypeptide
B8 yielded a Kcat of 1.164 s⁻¹.

B9: SEQ ID NO: 501: GAT polypeptide (protein)
chain: MLEVKPINAEDTYELRHKILRPNQPLEVCMYETDLLRGAFHLGGFYGGKLISIASFHQAEHSDLQGQKQYQLRGMATLEGYRDQKAGSSLIRHAEEILRKRGADMLWCNARTSASGYYKKLGFSEQGEVFDTPPVGPHILMYKKIT
modifications: 6_1H10
notes: GAT polypeptide
In the case of B9, the Kcat was 0.2835 s⁻¹.

B10: SEQ ID NO: 497: GAT polypeptide (protein)
chain: MLEVKPINAEDTYELRHKILRPNQPLEVCMYETDLLRGAFHLGGFYRGKLISIASFHQAEHSDLQGQKQYQLRGMATLEGYRDQKAGSSLIRHAEQILRKRGADMLWCNARTSASGYYRKLGFSEQGEVFETPPVGPHILMYKRLT
modifications: 6_1A11
notes: GAT polypeptide
With B10, the Kcat was 0.759 s⁻¹.

B11: SEQ ID NO: 499: GAT polypeptide (protein)
chain: MIEVKPINAEDTYELRHKILRPNQPLEVCMYETDLLRGAFHLGGFYRGKLISIASFHQAEHSDLQGQKQYQLRGMATLEGYREQKAGSSLIRHAEQILRKRGADMLWCNARTSASGYYKKLGFSEQGEVFETPPVGPHILMYKRLT
modifications: 6_1F11
notes: GAT polypeptide
Turning to B11, the Kcat came out at 1.7627 s⁻¹.

B12: SEQ ID NO: 280: GAT polypeptide (protein)
chain: MIEVKPINAEDTYEIRHRILRPNQPLEACMYETDLLGGTFHLGGYYRGKLVSIASFHQAEHPELEGQKQYQLRGMATLEGYREQKAGSTLIRHAEELLRKKGADLLWCNARTSASGYYKKLGFSEQGEVYDIPPTGPHILMYKKLT
modifications: 10_4H7
notes: GAT polypeptide
In the case of B12, the Kcat amounted to 1.87 s⁻¹ and the Km (commonly the substrate concentration at which the rate is half of its maximum) is 1700 µM.

B13: SEQ ID NO: 514: GAT polypeptide (protein)
chain: MIEVKPINAEDTYEIRHRILRPNQPLEACMYETDLLGGTFHLGGYYRGKLISIASFHQAEHSELEGQKQYQLRGMATLEGYREQKAGSTLIRHAEELLRKKGADLLWCNARTSVSGYYKKLGFSEQGGVYDIPPIGPHILMYKKLT
modifications: GAT2_21F1
notes: GAT polypeptide
In the case of B13, the Kcat was determined as 0.07 s⁻¹ and the Km came out at 3000 µM.

B14: SEQ ID NO: 508: GAT polypeptide (protein)
chain: MIEVKPINAEDTYEIRHRILRPNQPLEACKYETDLLGGTFHLGGYYRGKLISIASFHNAEHSELEGQKQYQLRGMATLEGYREQKAGSTLIRHAEELLRKKGADLLWCNARTSVSGYYKKLGFSEQGEVYDIPPIGPHILMYKKLT
modifications: GAT1_21F12
notes: GAT polypeptide
Regarding B14, the Kcat came to 0.09 s⁻¹ and the Km amounted to 4600 µM.

B15: SEQ ID NO: 281: GAT polypeptide (protein)
chain: MIEVKPINAEDTYEIRHRILRPNQPLEACKYETDLLGGTLHLGGYYRGKLVSIASFHQAEHPELEGQKQYQLRGMATLEGYREQKAGSTLIRHAEELLRKKGADLLWCNARTSASGYYKKLGFSEQGEVYDIPPVGPHILMYKKLT
modifications: 10_6D11
notes: GAT polypeptide
Regarding B15, the Kcat stood at 1.04 s⁻¹ and the Km was determined as 1200 µM.

B16: SEQ ID NO: 282: GAT polypeptide (protein)
chain: MIEVKPINAEDTYEIRHRILRPNQPLEACKYETDLLGGAFHLGGYYRGKLISIASFHQAEHPELEGQKQYQLRGMATLEGYREQKAGSTLIRHAEELLRKKGADLLWCNARTSASGYYKKLGFSEQGGVYDIPPVGPHILMYKKLT
modifications: 10_8C6
notes: GAT polypeptide
As for B16, the Kcat was found to be 0.362 s⁻¹ and the Km was 700 µM.

B17: SEQ ID NO: 509: GAT polypeptide (protein)
chain: MIEVKPINAEDTYEIRHRILRPNQPLEACMYETDLLGGTFHLGGYYRGKLISIASFHQAEHSELEGQKQYQLRGMATLEGYREQKAGSTLIRHAEELLRKKGADLLWCNARTFVSGYYEKLGFSEQGEVYDIPPIGPYILMYEKLT
modifications: GAT1_24G3
notes: GAT polypeptide
For B17, the Kcat turned out to be 0.0817 s⁻¹ and the Michaelis constant (Km) stood at 3800 µM.

B18: SEQ ID NO: 510: GAT polypeptide (protein)
chain: MIEVKPINAEDTYEIRHRILRPNQPLEACMYETDLLGGTFHLGGYYRGKLISIASFHQAEHSELEGQKQYQLRGMATLEGYREQKAGSTLIRHAEELLRKKGADLLWCNARTSVSGYYKKLGFSEQGGVCDIPPIGPHILMYKKLA
modifications: GAT1_29G1
notes: GAT polypeptide
Take B18: the Kcat came out at 0.103 s⁻¹ and the Km was 4000 µM.

B19: SEQ ID NO: 513: GAT polypeptide (protein)
chain: MIEVKPINAEDTYEIRHRILRPNQPLEACMYETDLLGGTFHLGGYYRGKLISIASFHQAEHPELEGQKQYQLRGMATLEGYREQKAGSTLIRHAEELLRKKGADLLWCNARTSVSGYYEKLGFSEQGEVCDIPPIGPHILMYKKLT
modifications: GAT2_19H8
notes: GAT polypeptide
For the molecule B19, the Kcat is 0.0683 s⁻¹ and the Km stood at 2800 µM.

B20: SEQ ID NO: 283: GAT polypeptide (protein)
chain: MIEVKPINAEDTYEIRHRILRPNQPLEACKYETDLLGGTFHLGGYYQGKLISIASFHQAEHSELEGQKQYQLRGMATLEGYREQKAGSTLIRHAEELLRKKGADLLWCNARTSVSGYYKKLGFSEQGGVYDIPPIGPHILMYKKLT
modifications: 11C3
notes: GAT polypeptide
In the case of B20, the Kcat was determined as 0.0467 s⁻¹ and the Km is 3100 µM.

B21: SEQ ID NO: 511: GAT polypeptide (protein)
chain: MIEVKPINAEDTYEIRHRILRPNQPLEACMYETDLLGGTFHLGGYYRGKLISIASFHQAEHPELEGQKQYQLRGMATLEGYREQKAGSTLIRHAEELLRKKGADLLWCNARTSVSGYYEKLGFSEQGEVYDIPPIGPHILMYKKLT
modifications: GAT1_32G1
notes: GAT polypeptide
Take B21: the Kcat worked out at 0.075 s⁻¹ and the Km was found to be 3300 µM.

B22: SEQ ID NO: 512: GAT polypeptide (protein)
chain: MIEVKPINAEDTYEIRHRILRPNQPLEACKYETDLLGGTFHLGGYYRGKLISIASFHNAEHSELEGQKQYQLRGMATLEGYREQKAGSTLIRHAEELLRKKGADLLWCNARTSVSGYYKKLGFSEQGEVYDIPPIGPHILMYKKLT
modifications: GAT2_15G8
notes: GAT polypeptide
As to B22, the Kcat was found to be 0.075 s⁻¹ and the Michaelis-Menten constant (Km) came to 2800 µM.

B23: SEQ ID NO: 504: GAT polypeptide (protein)
chain: MIEVKPINAEDTYELRHRVLRPNQPLEVCMYETDLLRGAFHLGGYYRGKLISIASFHQAEHSELQGQKQYQLRGMATLEGYREQKAGSSLIKHAEEILRKRGADLLWCNARTSASGYYKKLGFSEQGEVFETPPVGPHILMYKRLT
modifications: 8_1G2
notes: GAT polypeptide
On to B23, for which the Kcat was 1.124 s⁻¹.
